Measurements from article doi:10.1101/2024.03.12.584703.

Target: VCAP-102 capsid (adeno-associated virus 9) (UniProt Q6JC40)
Test: SPR

B1: His-tagged human ALPL (recombinant) (receptor)
chain: LVPEKEKDPKYWRDQAQETLKYALELQKLNTNVAKNVIMFLGDGMGVSTVTAARILKGQLHHNPGEETRLEMDKFPFVALSKTYNTNAQVPDSAGTATAYLCGVKANEGTVGVSAATERSRCNTTQGNEVTSILRWAKDAGKSVGIVTTTRVNHATPSAAYAHSADRDWYSDNEMPPEALSQGCKDIAYQLMHNIRDIDVIMGGGRKYMYPKNKTDVEYESDEKARGTRLDGLDLVDTWKSFKPRYKHSHFIWNRTELLTLDPHNVDYLLGLFEPGDMQYELNRNNVTDPSLSEMVVVAIQILRKNPKGFFLLVEGGRIDHGHHEGKAKQALHEAVEMDRAIGQAGSLTSSEDTLTVVTADHSHVFTFGGYTPRGNSIFGLAPMLSDTDKKPFTAILYGNGPGYKVVGGERENVSMVDYAHNNYQAQSAVPLRHETHGGEDVAVFSKGPMAHLLHGVHEQNYVPHVMAYAACIGANLGHCAPAS
B1 was tested. Which Kd did it give?
Its Kd is 20 nM.
